Assay results as given in article PMC5811392.

B1: p21 20-mer DNA, unlabeled (dsDNA)
DNA 1: GAACATGTTCGAACATGTTC
DNA 2: GAACATGTTCGAACATGTTC
B2: p21 20-mer DNA, Cy5 (dsDNA)
DNA 1: GAACATGTTCGAACATGTTC
DNA 2: GAACATGTTCGAACATGTTC

What was measured:
p23 = molecular target: T1, p23 (Homo sapiens, UniProt Q15185 1-160); test: NMR DOSY
T1 sequence: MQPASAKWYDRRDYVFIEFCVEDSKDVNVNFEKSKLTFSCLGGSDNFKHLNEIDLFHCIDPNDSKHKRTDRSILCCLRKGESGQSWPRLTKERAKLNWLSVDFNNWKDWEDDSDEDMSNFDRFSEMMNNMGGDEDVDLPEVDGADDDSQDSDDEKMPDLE

p53 DBD = p53 DBD (Homo sapiens, UniProt P04637 88-312); test: fluorescence anisotropy
p53 DBD, sequence (P04637 88-312): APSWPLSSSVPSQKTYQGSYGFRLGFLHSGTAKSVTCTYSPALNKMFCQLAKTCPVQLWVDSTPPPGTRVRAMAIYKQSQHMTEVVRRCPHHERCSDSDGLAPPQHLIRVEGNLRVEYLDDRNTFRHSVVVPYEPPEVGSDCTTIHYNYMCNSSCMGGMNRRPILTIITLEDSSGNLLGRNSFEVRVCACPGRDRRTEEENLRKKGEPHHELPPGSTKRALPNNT

Binder	binding result (p23)	Kd (p53 DBD)
B1	no binding	–
B2	–	45 ± 7 nM
